The target in test [1] is T1, Alexa488 labeled BIN1-FL (human, UniProt O00499-8 1-454, Alexa 488 C5-maleimide on endogenous cysteine residues).
T1 sequence (looked up): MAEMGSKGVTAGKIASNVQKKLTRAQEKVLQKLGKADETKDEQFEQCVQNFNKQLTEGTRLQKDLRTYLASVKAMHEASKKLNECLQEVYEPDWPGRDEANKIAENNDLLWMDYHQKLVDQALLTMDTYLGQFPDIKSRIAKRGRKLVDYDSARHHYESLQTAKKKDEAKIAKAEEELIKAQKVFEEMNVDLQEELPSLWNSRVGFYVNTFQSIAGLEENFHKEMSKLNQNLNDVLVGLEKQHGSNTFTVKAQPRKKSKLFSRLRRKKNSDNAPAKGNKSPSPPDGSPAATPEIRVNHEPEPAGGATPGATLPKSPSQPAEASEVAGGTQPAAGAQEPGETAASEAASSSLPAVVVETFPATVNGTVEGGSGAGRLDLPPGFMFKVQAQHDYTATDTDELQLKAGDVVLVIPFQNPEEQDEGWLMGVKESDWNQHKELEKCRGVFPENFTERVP
The test can be described thus: recruitment of fluorescent peptide to protein-coated giant vesicles.

Test [2] deals with T2, GST-SH3 domain (derived from BIN1) (human).
T2 sequence (O00499 whole entry, looked up): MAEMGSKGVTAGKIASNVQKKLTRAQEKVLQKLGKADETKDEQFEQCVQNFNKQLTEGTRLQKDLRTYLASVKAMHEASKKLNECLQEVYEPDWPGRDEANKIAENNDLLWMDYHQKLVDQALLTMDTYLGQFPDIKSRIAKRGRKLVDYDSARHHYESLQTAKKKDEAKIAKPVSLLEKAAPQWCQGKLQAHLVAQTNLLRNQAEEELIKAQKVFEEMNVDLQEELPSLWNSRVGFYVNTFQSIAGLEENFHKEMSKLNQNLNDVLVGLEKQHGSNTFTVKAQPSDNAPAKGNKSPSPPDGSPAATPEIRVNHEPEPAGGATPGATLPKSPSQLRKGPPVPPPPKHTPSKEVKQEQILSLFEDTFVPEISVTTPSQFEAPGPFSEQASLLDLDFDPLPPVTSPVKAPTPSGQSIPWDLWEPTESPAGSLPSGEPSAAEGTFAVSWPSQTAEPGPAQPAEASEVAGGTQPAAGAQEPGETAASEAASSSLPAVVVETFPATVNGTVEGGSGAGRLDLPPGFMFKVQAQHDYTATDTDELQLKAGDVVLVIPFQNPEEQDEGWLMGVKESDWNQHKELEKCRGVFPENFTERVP
The test can be described thus: ITC. For orientation: Isothermal titration calorimetry measures the heat released or taken up as one component is titrated into another.

The target is the same in test [3]. The test can be described thus: ITC. The source holds these as a separate data set.
Test [4] shares this target. In words: ITC. This is another data set of the same source.
Test [5] shares this target. In words: ITC. This is another data set of the same source.

Read-outs that look alike come from different tables or passages of the source. Ends that are not written are not given here. rhodamine = not defined here

By Kd is commonly meant the concentration at which binding is half-saturated. The low end stands for higher affinity, the high end for lower affinity. As a reminder, the stoichiometry N is a count of units in the complex or per binding partner.

As to rhodamine-PPQIPSRPVRIPPGI (reading uncertain) [rhodamine-labeled PRD peptide], the binding result in test [1] is recorded as “binds”.

For RKKSKLFSRLRRKKN [exon10 peptide], the Kd in test [2] came to 11.3 µM; in test [4], 3.9 µM. The stoichiometry N in test [3] and in test [4] was 1 each time.

For the molecule PPQIPSRPVRIPPGI [dynamin 2-derived proline-rich domain peptide], the Kd was 68.3 µM in test [5] and 13.7 µM in test [4].

Source of the values: publication PMC4245986 (Biochemistry, 2014).
